Data: patent US20100143349A1 (Pfizer, published 2010)
Substitutions are numbered along the chain they refer to.

Columns and labels:
hRAGE-Fc [1] = molecular target: T1, hRAGE-Fc (human, UniProt Q15109 23-342, biotin label in the selections and HTRF assays); assay: HTRF competition, scFv vs labelled parental XT-M4 (competitor) on hRAGE
T1 construct: extracellular domain; also called biotin labeled hRAGE-Fc; Biotin-labeled RAGE-Fc; not shown: Fc part
Method: (§1) Increases in binding to RAGE antigen were detected with the aid of a competition assay using parental XT-M4 antibody. Both phage display and ribosome display libraries were selected for affinity improved variants by incubating with biotin labeled hRAGE-Fc, recovering binding clones using streptavidin magnetic beads and washing away non binding variants. Sequential rounds of selection were carried on decreasing antigen concentrations to drive the preferential recovery of higher affinity variants. Clones recovered after selection were subsequently screening for improved binding to hRAGE-Fc using HTRF. This is an assay that measures the decrease in fluorescence upon binding of parental europium cryptate-labeled XT-M4 to RAGE in the presence of competing test scFv antibodies. In these assays, periplasmic preparations of scFv were prepared from bacterial cultures and added in increasing concentrations to a combination of parental antibody and antigen. The ability of the scFV to compete with parental XT-M4 antibody to bind to Biotin-labeled RAGE-Fc was determined. In the presence of avidin-XL665 complex labeled XT-M4 bound to biotinylated RAGE-FC was detected by Fluorescence. Increasing amounts of scFv that competed with the XT-M4 for binding to biotinylated-RAGE-Fc was detected as a decrease in fluorescence. A sequential process of screening was used to focus in on a smaller number of clones with the greatest competition in HTRF assay

hRAGE-Fc [2] = molecular target: T1, hRAGE-Fc; assay: IC50 of parental M4 scFv over IC50 of clone, HTRF competition
Method: as §1

hRAGE-Fc [3] = molecular target: T1, hRAGE-Fc; assay: HTRF competition, scFv vs labelled parental XT-M4 (competitor) on biotin hRAGE-Fc
Method: as §1

hRAGE-Fc [4] = molecular target: T1, hRAGE-Fc; assay: IC50 of parental M4 scFv-Fc over IC50 of clone, HTRF competition
HU-RAGE-SA [5] = molecular target: T2, HU-RAGE-SA (human, UniProt Q15109 23-342); assay: BIAcore, 10 nM scFv-Fc over directly immobilized HU-RAGE-SA, 1:1 fit
T2 construct: extracellular domain; Directly immobilized on a CM5 chip (~100 RU); also called hRAGE-SA; soluble human streptavidin-tagged RAGE; not shown: streptavidin tag (SA)

HU-RAGE-SA [6] = molecular target: T2, HU-RAGE-SA; assay: BIAcore kd against parental M4 scFv-Fc
[7] = molecular target: T3, human RAGE expressed on CHO cells (human, UniProt Q15109 23-404); assay: cell ELISA on CHO-RAGE cells, A450 corrected for control CHO cells
T3 construct: whole, on cells; also called CHO-RAGE cells; cell surface expressed human RAGE
Method: Stably transfected Chinese Hamster Ovary (CHO) cells were engineered to express murine and human RAGE full length proteins. The murine and human RAGE cDNAs were cloned into the mammalian expression vector pSMED, linearized and transfected into CHO cells using lipofectin methods (Kaufman, R. J., 1990, Methods in Enzymology 185:537-66; Kaufman, R. J., 1990, Methods in Enzymology 185:487-511; Pittman, D. D. et al., 1993, Methods in Enzymology 222: 236). Cells were further selected in 20 nM methotrexate and cell extracts were harvested from individual clones and analyzed by SDS sodium dodecyl sulfate-polyacrylamide gel electrophoresis (SDS-PAGE) and Western blotting to confirm expression. […] Absorbance 450 nm values were corrected for the same clones binding to control CHO cells not expressing RAGE. EC50 values were calculated after curve fitting using GraphPad prism and are expressed in μg/ml.

T3 sequence (Q15109 23-404): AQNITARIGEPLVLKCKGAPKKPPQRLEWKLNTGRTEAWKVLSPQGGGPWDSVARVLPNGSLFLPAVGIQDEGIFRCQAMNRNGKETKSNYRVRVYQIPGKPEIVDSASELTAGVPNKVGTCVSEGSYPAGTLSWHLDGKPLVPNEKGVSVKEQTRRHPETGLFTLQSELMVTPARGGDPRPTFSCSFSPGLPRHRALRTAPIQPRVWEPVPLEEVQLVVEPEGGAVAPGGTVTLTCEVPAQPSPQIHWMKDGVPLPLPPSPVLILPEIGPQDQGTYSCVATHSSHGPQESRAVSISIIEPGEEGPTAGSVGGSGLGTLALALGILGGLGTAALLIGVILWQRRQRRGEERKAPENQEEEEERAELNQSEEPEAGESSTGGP
T1 sequence (Q15109 23-342): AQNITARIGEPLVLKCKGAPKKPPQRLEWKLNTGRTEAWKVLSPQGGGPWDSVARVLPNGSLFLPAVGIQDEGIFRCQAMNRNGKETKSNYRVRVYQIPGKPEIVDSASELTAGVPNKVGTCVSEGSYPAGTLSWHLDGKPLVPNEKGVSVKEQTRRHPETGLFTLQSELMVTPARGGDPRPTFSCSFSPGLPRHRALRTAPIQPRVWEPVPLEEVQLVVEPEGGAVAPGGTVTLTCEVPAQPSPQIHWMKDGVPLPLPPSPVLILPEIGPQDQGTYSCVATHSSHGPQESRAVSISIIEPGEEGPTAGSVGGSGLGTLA
T2 sequence (Q15109 23-342): as above

B1: 3A6 scFv (scFv)
scFv: DIQMTQSPSSLSASVGDRVTITCRASQDVGIYVNWFQQKPGKAPRRLIYRATNLADGVPSRFSGSRSGTDFTLTISSLQPEDFATYYCLEFDEHPLTFGGGTKVEIKDGGGSGGGGSGGGGSSEVQLVESGGGLVQPGGSLRLSCAASGFTFNNYWMTWVRQAPGKGLEWVASIDNSGDNTYYPDSVKDRFTISRDNAKNSLYLQMNSLRAEDTAVYYCARGGDILVSLDVWGQGTLVTVSS
hRAGE-Fc [1]
  IC50: 0.47 nM
hRAGE-Fc [2]
  Fold gain scFv (hRAGE): 70 fold
hRAGE-Fc [3]
  IC50: 0.474 nM

B2: 3B7 scFv (scFv)
scFv: B1 scFv with E90Q, E93S, L226T, V227T, S228G, L229F, V231Y
hRAGE-Fc [3]
  IC50: 7.35 nM

B3: 3D2 scFv (scFv)
scFv: B1 scFv with L226R, V231H
hRAGE-Fc [1]
  IC50: 1.27 nM
hRAGE-Fc [2]
  Fold gain scFv (hRAGE): 26 fold
hRAGE-Fc [3]
  IC50: 1.27 nM

B4: 1G6 scFv-Fc fusion (Fc fusion)
chain: B1 scFv with I31F, L226T, V227N, S228G, L229F, V231Y
notes: not shown: wild-type human IgG Fc (hinge and constant domains)
hRAGE-Fc [4]
  Fold gain scFv-Fc (hRAGE): 6.4 fold
HU-RAGE-SA [5]
  koff: 0.000438 s⁻¹
HU-RAGE-SA [6]
  Fold change in kd: 66.9 fold
[7]
  EC50: 0.188 µg/mL

B5: 3G3 scFv (scFv)
scFv: B1 scFv with L226K, V231H
hRAGE-Fc [3]
  IC50: 1.44 nM

B6: 3D2 scFv-Fc fusion (Fc fusion)
chain: B1 scFv with L226R, V231H
notes: as for B4
hRAGE-Fc [4]
  Fold gain scFv-Fc (hRAGE): 31.3 fold
HU-RAGE-SA [5]
  koff: 0.00391 s⁻¹
HU-RAGE-SA [6]
  Fold change in kd: 7.4 fold
[7]
  EC50: 0.136 µg/mL

B7: 3A6 scFv-Fc fusion (Fc fusion)
chain: B1 scFv
notes: as for B4
hRAGE-Fc [4]
  Fold gain scFv-Fc (hRAGE): 9.9 fold
HU-RAGE-SA [5]
  koff: 0.000867 s⁻¹
HU-RAGE-SA [6]
  Fold change in kd: 33.8 fold
[7]
  EC50: 0.0673 µg/mL

B8: 6B2 scFv (scFv)
scFv: B1 scFv with L226R, S228G
hRAGE-Fc [1]
  IC50: 1.77 nM
hRAGE-Fc [2]
  Fold gain scFv (hRAGE): 18.6 fold
hRAGE-Fc [3]
  IC50: 1.77 nM

B9: 3G5 scFv-Fc fusion (Fc fusion)
chain: B1 scFv with V227D, D230P, V231Y
notes: Substitutions derived from the printed HCDR3; not shown: wild-type human IgG Fc (hinge and constant domains)
hRAGE-Fc [4]
  Fold gain scFv-Fc (hRAGE): 62.7 fold
HU-RAGE-SA [5]
  koff: 0.00045 s⁻¹
HU-RAGE-SA [6]
  Fold change in kd: 65.1 fold
[7]
  EC50: 0.0565 µg/mL

B10: 6A12 scFv (scFv)
scFv: B1 scFv with E90Q, F91Y, E93A, L226T, V227T, S228G, L229F, V231Y
hRAGE-Fc [3]
  IC50: 8.27 nM

B11: 3B3 scFv-Fc fusion (Fc fusion)
chain: B1 scFv with I31F, L226T, V227T, S228G, V231Y
notes: as for B4
hRAGE-Fc [4]
  Fold gain scFv-Fc (hRAGE): 8.8 fold
HU-RAGE-SA [5]
  koff: 0.00649 s⁻¹
HU-RAGE-SA [6]
  Fold change in kd: 4.5 fold
[7]
  EC50: 0.541 µg/mL

B12: 6E5 scFv (scFv)
scFv: B1 scFv with L226R, S228M
hRAGE-Fc [3]
  IC50: 2.25 nM

B13: 6B6 scFv (scFv)
scFv: B1 scFv with L226I, V227I, V231W
hRAGE-Fc [1]
  IC50: 0.65 nM
hRAGE-Fc [2]
  Fold gain scFv (hRAGE): 50.7 fold
hRAGE-Fc [3]
  IC50: 0.645 nM

B14: 3D6 scFv (scFv)
scFv: B1 scFv with L226R, S228M, V231L
hRAGE-Fc [3]
  IC50: 2.92 nM

B15: 6C11 scFv (scFv)
scFv: B1 scFv with E90Q, F91Y, E93A, L226T, V227T, S228G, L229F, V231Y
hRAGE-Fc [3]
  IC50: 9.03 nM

B16: 3C6 scFv (scFv)
scFv: B1 scFv with L226V, S228G, V231H
hRAGE-Fc [3]
  IC50: 1.26 nM

B17: 6A10 scFv (scFv)
scFv: B1 scFv with E90Q, E93A, L226T, V227T, S228G, L229F, V231Y
hRAGE-Fc [3]
  IC50: 6.94 nM

B18: 6C10 scFv (scFv)
scFv: B1 scFv with E90Q, L226T, V227T, S228G, L229F, V231Y
hRAGE-Fc [3]
  IC50: 7.38 nM

B19: 3D5 scFv (scFv)
scFv: B1 scFv with L226K, S228G, V231L
hRAGE-Fc [3]
  IC50: 3 nM

B20: 6E3 scFv (scFv)
scFv: B1 scFv with L226R, V231F
hRAGE-Fc [3]
  IC50: 1.75 nM

B21: 5H3 scFv-Fc fusion (Fc fusion)
chain: B1 scFv with Y49D, Q126L, L226T, V227T, S228G, L229F, V231Y
notes: as for B4
hRAGE-Fc [4]
  Fold gain scFv-Fc (hRAGE): 6.1 fold
HU-RAGE-SA [5]
  koff: 0.0826 s⁻¹
HU-RAGE-SA [6]
  Fold change in kd: 0.35 fold

B22: 3B9 scFv (scFv)
scFv: B1 scFv with E90Q, E93N, L226T, V227T, S228G, L229F, V231Y
hRAGE-Fc [3]
  IC50: 10.6 nM

B23: 6C2 scFv (scFv)
scFv: B1 scFv with L226K, V231R
hRAGE-Fc [1]
  IC50: 0.73 nM
hRAGE-Fc [2]
  Fold gain scFv (hRAGE): 48.2 fold
hRAGE-Fc [3]
  IC50: 0.731 nM

B24: 3G8 scFv (scFv)
scFv: B1 scFv with E90Q, F91Y, E93A, L226T, V227T, S228G, L229F, V231Y
hRAGE-Fc [3]
  IC50: 8.08 nM

B25: 6B2 scFv-Fc fusion (Fc fusion)
chain: B1 scFv with L226R, S228G
notes: as for B9
hRAGE-Fc [4]
  Fold gain scFv-Fc (hRAGE): 8.2 fold
HU-RAGE-SA [5]
  koff: 0.000484 s⁻¹
HU-RAGE-SA [6]
  Fold change in kd: 61 fold
[7]
  EC50: 0.0816 µg/mL

B26: 10H6 scFv-Fc fusion (Fc fusion)
chain: B1 scFv with R18G, R24Q, D108N, L226T, V227T, S228G, V231Y, V240E
notes: also called 10H6 (a); not shown: wild-type human IgG Fc (hinge and constant domains)
hRAGE-Fc [4]
  Fold gain scFv-Fc (hRAGE): 13.7 fold
HU-RAGE-SA [5]
  koff: 0.00116 s⁻¹
HU-RAGE-SA [6]
  Fold change in kd: 25.3 fold

B27: 3B2 scFv-Fc fusion (Fc fusion)
chain: B1 scFv with S228G, V231Y
notes: as for B4
hRAGE-Fc [4]
  Fold gain scFv-Fc (hRAGE): 34.2 fold
HU-RAGE-SA [5]
  koff: 0.000684 s⁻¹
HU-RAGE-SA [6]
  Fold change in kd: 42.8 fold
[7]
  EC50: 0.0335 µg/mL

B28: 3B2 scFv (scFv)
scFv: B1 scFv with S228G, V231Y
hRAGE-Fc [1]
  IC50: 0.92 nM
hRAGE-Fc [2]
  Fold gain scFv (hRAGE): 35.8 fold
hRAGE-Fc [3]
  IC50: 0.917 nM

B29: 6B6 scFv-Fc fusion (Fc fusion)
chain: B1 scFv with L226I, V227I, V231W
notes: as for B9
hRAGE-Fc [4]
  Fold gain scFv-Fc (hRAGE): 7.6 fold
HU-RAGE-SA [5]
  koff: 0.00141 s⁻¹
HU-RAGE-SA [6]
  Fold change in kd: 20.8 fold
[7]
  EC50: 0.0285 µg/mL

B30: 5A3 scFv-Fc fusion (Fc fusion)
chain: B1 scFv with R18I, G68S, Q205K, A220T, L226T, V227T, S228G, V231Y
notes: as for B4
hRAGE-Fc [4]
  Fold gain scFv-Fc (hRAGE): 12.2 fold
HU-RAGE-SA [5]
  koff: 0.00494 s⁻¹
HU-RAGE-SA [6]
  Fold change in kd: 5.9 fold
[7]
  EC50: 0.096 µg/mL

B31: 6G4 scFv (scFv)
scFv: B1 scFv with V227D, D230H, V231F
hRAGE-Fc [1]
  IC50: 2.03 nM
hRAGE-Fc [2]
  Fold gain scFv (hRAGE): 16.2 fold
hRAGE-Fc [3]
  IC50: 2.03 nM

B32: 3E8 scFv (scFv)
scFv: B1 scFv with E90Q, E93V, L226T, V227T, S228G, L229F, V231Y
hRAGE-Fc [3]
  IC50: 7.21 nM

B33: 2E6 scFv-Fc fusion (Fc fusion)
chain: B1 scFv with S122N, G132V, L226T, V227N, S228G, V231Y
notes: also called 2E6 (c); not shown: wild-type human IgG Fc (hinge and constant domains)
hRAGE-Fc [4]
  Fold gain scFv-Fc (hRAGE): 6.9 fold
HU-RAGE-SA [5]
  koff: 0.00114 s⁻¹
HU-RAGE-SA [6]
  Fold change in kd: 25.7 fold
[7]
  EC50: 0.113 µg/mL

B34: 3G5 scFv (scFv)
scFv: B1 scFv with V227D, D230P, V231Y
hRAGE-Fc [1]
  IC50: 0.87 nM
hRAGE-Fc [2]
  Fold gain scFv (hRAGE): 37.9 fold
hRAGE-Fc [3]
  IC50: 0.87 nM

B35: 6C3 scFv (scFv)
scFv: B1 scFv with L226T, V227L, S228G
hRAGE-Fc [1]
  IC50: 1.53 nM
hRAGE-Fc [2]
  Fold gain scFv (hRAGE): 21.5 fold
hRAGE-Fc [3]
  IC50: 1.53 nM
